Measurements published in US20160347802A1 (MAX PLANCK GESELLSCHAFT ZUR FOERDERUNG DER WISSENSCHAFTEN E …, published 2016).

T1: human Netrin-4, AVEXIS protein (human, UniProt Q9HB63 19-628)
T1 construct: not shown: AVEXIS tag (bait or prey)
T1 sequence (looked up): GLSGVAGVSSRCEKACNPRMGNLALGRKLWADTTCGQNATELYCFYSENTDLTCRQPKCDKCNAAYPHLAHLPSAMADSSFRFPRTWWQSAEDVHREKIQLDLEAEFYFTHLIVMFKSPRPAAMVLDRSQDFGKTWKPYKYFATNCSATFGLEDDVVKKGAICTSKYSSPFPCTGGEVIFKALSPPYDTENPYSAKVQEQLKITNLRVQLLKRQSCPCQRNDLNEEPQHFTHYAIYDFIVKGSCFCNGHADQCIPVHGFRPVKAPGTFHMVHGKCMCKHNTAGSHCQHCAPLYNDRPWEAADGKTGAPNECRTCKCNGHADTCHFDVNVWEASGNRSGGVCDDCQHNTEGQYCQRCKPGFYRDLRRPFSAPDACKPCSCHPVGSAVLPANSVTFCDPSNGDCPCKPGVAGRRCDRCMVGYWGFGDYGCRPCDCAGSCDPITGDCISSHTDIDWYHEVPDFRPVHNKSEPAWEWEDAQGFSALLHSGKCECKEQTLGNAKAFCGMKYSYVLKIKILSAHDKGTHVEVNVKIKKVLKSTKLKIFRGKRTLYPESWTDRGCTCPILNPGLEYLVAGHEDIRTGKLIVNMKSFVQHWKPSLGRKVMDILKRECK

T2: human Netrin-G1, AVEXIS protein (human, UniProt Q9Y2I2 29-510)
T2 construct: not shown: AVEXIS tag (bait or prey)
T2 sequence (looked up): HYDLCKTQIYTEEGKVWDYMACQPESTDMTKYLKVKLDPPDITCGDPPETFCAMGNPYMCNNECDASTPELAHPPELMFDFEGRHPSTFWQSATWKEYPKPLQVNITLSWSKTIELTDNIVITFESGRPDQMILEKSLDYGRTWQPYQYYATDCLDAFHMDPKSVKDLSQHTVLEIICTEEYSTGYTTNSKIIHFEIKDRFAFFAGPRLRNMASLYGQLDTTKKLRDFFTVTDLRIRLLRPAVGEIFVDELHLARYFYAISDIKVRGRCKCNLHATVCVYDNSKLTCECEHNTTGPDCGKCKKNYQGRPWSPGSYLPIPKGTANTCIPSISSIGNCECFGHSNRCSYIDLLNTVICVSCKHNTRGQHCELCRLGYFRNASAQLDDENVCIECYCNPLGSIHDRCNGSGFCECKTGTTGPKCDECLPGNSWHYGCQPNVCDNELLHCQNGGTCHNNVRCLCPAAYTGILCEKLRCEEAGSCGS

T3: human Netrin-G2, AVEXIS protein (human, UniProt Q96CW9 18-507)
T3 construct: not shown: AVEXIS tag (bait or prey)
T3 sequence (looked up): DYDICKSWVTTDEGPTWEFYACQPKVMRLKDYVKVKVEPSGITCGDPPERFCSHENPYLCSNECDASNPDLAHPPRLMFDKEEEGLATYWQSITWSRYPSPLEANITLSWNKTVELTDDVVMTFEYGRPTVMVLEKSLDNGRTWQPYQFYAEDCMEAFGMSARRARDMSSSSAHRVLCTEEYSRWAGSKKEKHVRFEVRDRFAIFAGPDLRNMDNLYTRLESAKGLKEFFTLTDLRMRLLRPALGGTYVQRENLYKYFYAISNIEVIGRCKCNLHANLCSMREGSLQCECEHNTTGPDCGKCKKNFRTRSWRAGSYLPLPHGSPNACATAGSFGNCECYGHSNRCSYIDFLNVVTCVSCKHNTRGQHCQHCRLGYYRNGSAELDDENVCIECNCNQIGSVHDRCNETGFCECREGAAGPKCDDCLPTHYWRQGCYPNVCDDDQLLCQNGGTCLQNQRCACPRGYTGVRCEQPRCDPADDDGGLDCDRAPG

T4: human DRAXIN 21 amino acid Netrin binding fragment, AVEXIS prey or bait protein (human)
T4 construct: Tested in both bait and prey orientations; also called human 21 amino acid DRAXIN fragment; derived 21 amino acid peptide; not shown: AVEXIS tag (rat Cd4d3+4 and prey or bait module)
T4 peptide: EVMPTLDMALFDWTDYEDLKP

T5: zebrafish DraxinB, AVEXIS protein (zebrafish)
T5 chain: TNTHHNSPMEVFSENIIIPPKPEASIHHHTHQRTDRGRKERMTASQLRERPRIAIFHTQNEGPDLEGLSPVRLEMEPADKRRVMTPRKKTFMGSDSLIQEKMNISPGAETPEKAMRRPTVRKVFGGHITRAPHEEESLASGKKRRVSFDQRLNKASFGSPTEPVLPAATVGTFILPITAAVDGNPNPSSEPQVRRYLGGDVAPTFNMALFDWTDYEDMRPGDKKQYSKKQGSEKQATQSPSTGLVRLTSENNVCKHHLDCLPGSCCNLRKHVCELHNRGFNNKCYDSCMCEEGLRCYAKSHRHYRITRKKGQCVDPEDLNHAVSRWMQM

B1: human DRAXIN, AVEXIS prey or bait protein (ligand)
chain: GALAPGTPARNLPENHIDLPGPALWTPQASHHRRRGPGKKEWGPGLPSQAQDGAVVTATRQASRLPEAEGLLPEQSPAGLLQDKDLLLGLALPYPEKENRPPGWERTRKRSREHKRRRDRLRLHQGRALVRGPSSLMKKAELSEAQVLDAAMEESSTSLAPTMFFLTTFEAAPATEESLILPVTSLRPQQAQPRSDGEVMPTLDMALFDWTDYEDLKPDGWPSAKKKEKHRGKLSSDGNETSPAEGEPCDHHQDCLPGTCCDLREHLCTPHNRGLNNKCFDDCMCVEGLRCYAKFHRNRRVTRRKGRCVEPETANGDQGSFINV
notes: It was tested in both bait and prey orientations
B2: zebrafish DraxinA, AVEXIS prey or bait protein (ligand)
chain: SEISSDNFKQSLTPSTTTSKEHPETGLTGGRQQKRHWSGKERDSAGLFSQRHMDRLEDDGTSMEGLSPVRLEMGPGDTMKAEVHGEVRASAQMRQGSHPAEGELNRKGRRHSHRLLAEHRKHGGKKDKGRGKGDLSDPEPELDSLLKDLNAFEDGLNTSPPNYNSVPLNEVPSPLSPILVTTAIKGHPPTLPPASTKPQKSSQGRTQGEVMPTLDMTLFDWTDYEDMKPADSWPSNKRKDKRRSKNKSNGNTTTEAGIVEPCDHHLDCLSGSCCDLREFECKPHNRGLNNKCFDDCMCEEGLRCYAKFHRKRRVTRRRGRCVDPESVNSNQGAFITV
notes: Prey and bait forms of the same protein are kept as one molecule; Preys are pentameric except in the monomeric-prey experiments; also called DraxinA prey protein

Tests used:
[1] = target: T1, human Netrin-4, AVEXIS protein; experiment: AVEXIS, prey NTN4 on bait DRAXIN
Excerpt: (§1) The Matn4-bait served as an internal prey-protein control and was used for normalization of the A486 nm values; conditioned medium (CM) serves as negative control; n=3.

[2] = target: T6, biotinylated recombinant human UNC5B (human, UniProt Q8IZJ1 27-377); experiment: AVEXIS, prey DRAXIN on bait UNC5B
T6 construct: Made in HEK293-6E and immobilised on an SA chip
Excerpt: as §1

[3] = target: T2, human Netrin-G1, AVEXIS protein; experiment: AVEXIS, prey NTNG1 on bait DRAXIN
Excerpt: as §1

[4] = target: T3, human Netrin-G2, AVEXIS protein; experiment: AVEXIS, prey NTNG2 on bait DRAXIN
Excerpt: as §1

[5] = target: T7, human Netrin1, recombinant AVEXIS protein (biotinylated when immobilised) (human, UniProt O95631 25-604); experiment: AVEXIS, prey on bait NTN1; dark = Binding
T7 construct: also called NTN1
Excerpt: as §1

[6] = target: T1, human Netrin-4, AVEXIS protein; experiment: AVEXIS, prey on bait NTN4; white = No binding
Excerpt: as §1

[7] = target: T2, human Netrin-G1, AVEXIS protein; experiment: AVEXIS, prey on bait NTNG1; white = No binding
Excerpt: as §1

[8] = target: T3, human Netrin-G2, AVEXIS protein; experiment: AVEXIS, prey on bait NTNG2; white = No binding
Excerpt: as §1

[9] = target: T6, biotinylated recombinant human UNC5B; experiment: AVEXIS, prey on bait UNC5B; white = No binding
Excerpt: as §1

[10] = target: T4, human DRAXIN 21 amino acid Netrin …; experiment: AVEXIS, prey on bait DRAXIN 21aa; white = No binding
Excerpt: as §1

[11] = target: B2; experiment: AVEXIS, prey on bait zDraxinA, lower value; white = No binding
[12] = target: B2; experiment: AVEXIS, prey on bait zDraxinA, upper value; white = No binding
[13] = target: T5, zebrafish DraxinB, AVEXIS protein; experiment: AVEXIS, prey on bait zDraxinB, lower value; white = No binding
[14] = target: T5, zebrafish DraxinB, AVEXIS protein; experiment: AVEXIS, prey on bait zDraxinB, upper value; white = No binding
[15] = target: T8, Matn4 ECD, mono-biotinylated bait protein (positive control); experiment: AVEXIS, prey on bait Matn4 (+), positive control for the prey; dark = Binding
T8 construct: extracellular domain; also called Matn4-bait
Excerpt: as §1

[16] = target: B1; experiment: AVEXIS, pentameric prey human DRAXIN on bait zDraxinA
[17] = target: the molecule itself; experiment: AVEXIS, pentameric prey zebrafish DraxinA on bait zDraxinA
[18] = target: T5, zebrafish DraxinB, AVEXIS protein; experiment: AVEXIS, pentameric prey zebrafish DraxinA on bait zDraxinB
[19] = target: the molecule itself; experiment: AVEXIS, prey on bait zDraxinA, lower value; white = No binding
[20] = target: the molecule itself; experiment: AVEXIS, prey on bait zDraxinA, upper value; white = No binding

binding result [1] | binding result [2] | binding result [3] | binding result [4] | A486nm [5] | A486nm [6] | A486nm [7] | A486nm [8] | A486nm [9] | A486nm [10] | A486nm [11] | A486nm [12] | A486nm [13] | A486nm [14] | A486nm [15] | binding result [16] | binding result [18] | Binder | binding result [17] | A486nm [19] | A486nm [20]
no binding | no binding | no binding | no binding | 0.361 | 0.076 | 0.077 | 0.072 | 0.078 | 0.063 | 0.06 | 0.06 | 0.058 | 0.056 | 0.213 |  |  | B1 |  |  | 
 |  |  |  |  |  |  |  |  |  |  |  | 0.059 | 0.057 |  | no binding | no binding | B2 | no binding | 0.06 | 0.062
